These results are taken from FireProtDB (doi:10.1006/jmbi.1996.0075).

Values joined by “and” are separate entries in the source; they are usually repeats but may differ in a detail not shown here. Identical values can stand only once.

For this data set the following is noted: Equus caballus, 20 °C, CD, reversible: yes; for unfolding free energy: Thermal.

Chain of Cytochrome c wild type, P00004 (P00004 whole entry): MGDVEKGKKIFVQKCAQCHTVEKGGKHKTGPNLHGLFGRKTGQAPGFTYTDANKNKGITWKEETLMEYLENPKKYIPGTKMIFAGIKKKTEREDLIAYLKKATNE

For the substance Cytochrome c wild type, P00004, the denaturant m value is 1.58 kcal/mol/M and 1.24 kcal/mol/M and 1.12 kcal/mol/M (pH 2, GdnHCl, glycine-HCl 5-10 mM, NaClO4 200 mM); 3.01 kcal/mol/M and 2.1 kcal/mol/M (pH 7, GdnHCl, Sodium phosphate 5-10 mM, NaCl); 1.2 kcal/mol/M and 0.86 kcal/mol/M (pH 7, Urea, Sodium phosphate 5-10 mM, NaCl). The unfolding free energy is, setting by setting: (pH 3.9, Sodium acetate 5-10 mM, NaCl) 0.57 kcal/mol; (pH 6, Sodium phosphate 5-10 mM, NaCl) 1.39 kcal/mol; (pH 7, Sodium phosphate 5-10 mM, NaCl) 1.7 kcal/mol.
